{
  "source": "paper PMC7378745",
  "test_in_all_cases": "Tox-Luc (ToxR-TM-MBP) TM domain dimerisation assay in E. coli, luciferase read-out",
  "key": {"[1]": {"target": "YT/LL mutated human CD28 TM domain in the ToxLuc construct (ToxR-TM-MBP)", "conditions": "parent: est. 23000; read off a plot"}, "[2]": {"target": "Y145L/T150L (YT/LL) mutated mouse CD28 TM domain in the ToxLuc construct (ToxR-TM-MBP)", "conditions": "read off a plot"}, "[3]": {"target": "mutant GpA (G83I) TM domain in the ToxLuc construct (ToxR-TM-MBP)", "conditions": "parent: est. 5500; read off a plot"}},
  "data": [
    {"substance": "WT human CD28 TM domain in the ToxLuc construct (ToxR-TM-MBP) YT/LL", "values": [
      {"measurement": "response (Relative Light units)", "setting": "[1]", "value": 2900}
    ]},
    {"substance": "WT mouse CD28 TM domain in the ToxLuc construct (ToxR-TM-MBP) Y145L; T150L", "values": [
      {"measurement": "response (Relative Light units)", "setting": "[2]; parent: est. 2500", "value": 270},
      {"measurement": "response (Relative Light units)", "setting": "[2]; parent: est. 19000", "value": 3100}
    ]},
    {"substance": "wild type (WT) GpA TM domain in the ToxLuc construct (ToxR-TM-MBP) G83I", "values": [
      {"measurement": "response (Relative Light units)", "setting": "[3]", "value": 700}
    ]}
  ]
}
